Assay results reported in publication PMC11240526, “Method for B Cell Receptor Enrichment in Malignant B Cells” (Cancers, 2024).

T1: CD79a (human (endogenous in Raji), UniProt P11912 33-226)
T1 construct: CD79a (Igα), signalling subunit of the B cell receptor, human, endogenous in the Raji B lymphoblastoid cell line; the text prints P11912; also called Igα; Ig-alpha; source: endogenous, Raji cells, membrane fraction solubilised in Triton X-100 or DOC lysis buffer
T1 sequence (looked up): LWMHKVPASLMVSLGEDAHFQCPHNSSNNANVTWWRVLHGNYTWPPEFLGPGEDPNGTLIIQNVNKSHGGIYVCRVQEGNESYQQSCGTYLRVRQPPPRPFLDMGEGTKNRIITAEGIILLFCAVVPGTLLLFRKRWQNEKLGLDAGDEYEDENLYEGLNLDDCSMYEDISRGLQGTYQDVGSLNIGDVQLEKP


Tests used:
[1] = target: CD79a (human (endogenous in Raji)) (UniProt P11912); assay: co-IP; antibody to the bait (anti-CD79a, anti-CD79b or anti-IgM) with Protein G agarose beads; Raji membrane fraction solubilised in 1% Triton X-100 lysis buffer in PBS; overnight at 4 °C; bead eluate read by Western blot, band intensities normalised to protein load
[2] = target: T1, CD79a; assay: as above; settings: partners not purified

Row | fold enrichment in the bead eluate over input (band intensity normalised to protein load) [1] | fold enrichment in the bead eluate over input (band intensity normalised to protein load) [2] | Molecule
1 | 30 fold | – | membrane immunoglobulin M (mIgM) of Raji cells (complex)
2 | – | ~12 fold | CD79b (natural protein, human (endogenous in Raji), UniProt P40259 29-229, looked up, CD79b (Igβ), signalling subunit of the B cell receptor, human, endogenous in the Raji B lymphoblastoid cell line; also called Igβ; Ig-beta; source: endogenous, Raji cells, membrane fraction solubilised in Triton X-100 or DOC lysis buffer) ARSEDRYRNPKGSACSRIWQSPRFIARKRGFTVKMHCYMNSASGNVSWLWKQEMDENPQQLKLEKGRMEESQNESLATLTIQGIRFEDNGIYFCQQKCNNTSEVYQGCGTELRVMGFSTLAQLKQRNTLKDGIIMIQTLLIILFIIVPIFLLLDKDDSKAGMEEDHTYEGLDIDQTATYEDIVTLRTGEVKWSVGEHPGQE
